Results as given in US20130005944A1 (ANCHOR THERAPEUTICS, published 2013).
Where no end group is shown, it is not given here. [ ]: non-standard residue; d: D form. The star is where a group is joined. Ala(3-Me-diazirin-3-yl) = CC1(C[C@H](N)C(=O)O)N=N1; Hexadecanesulfonyl = CCCCCCCCCCCCCCCCS(=O)(=O)*; 2Nal = N[C@@H](Cc1ccc2ccccc2c1)C(=O)O; Palmitoyl = CCCCCCCCCCCCCCCC(=O)*; Hyp = O=C(O)[C@@H]1C[C@@H](O)CN1; Cit = NC(=O)NCCC[C@H](N)C(=O)O; code z = not defined here; hSer = N[C@@H](CCO)C(=O)O; Nle = CCCC[C@H](N)C(=O)O; Pra = C#CC[C@H](N)C(=O)O; Dap = NC[C@H](N)C(=O)O

Target: CXCR4 receptor (human, UniProt P61073 1-352)
Sequence (P61073 whole entry): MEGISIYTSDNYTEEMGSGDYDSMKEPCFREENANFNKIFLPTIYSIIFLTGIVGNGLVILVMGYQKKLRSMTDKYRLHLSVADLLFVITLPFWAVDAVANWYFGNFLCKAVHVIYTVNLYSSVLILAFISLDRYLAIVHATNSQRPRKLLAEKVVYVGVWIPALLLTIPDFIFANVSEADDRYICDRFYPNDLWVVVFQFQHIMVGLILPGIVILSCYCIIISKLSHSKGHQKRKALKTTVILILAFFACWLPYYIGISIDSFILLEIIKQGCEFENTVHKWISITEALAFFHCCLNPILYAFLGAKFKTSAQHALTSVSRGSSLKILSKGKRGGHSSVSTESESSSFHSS
Assay: cell-based or functional assay

Row | Binder | % Intrinsic Activity, calcium flux, CEM cells (Flexstation) [%] | EC50 (nM), calcium flux, CEM cells, agonist mode (Flexstation) [nM] | EC50 (nM), calcium flux, CEM cells, agonist mode (FLIPR) [nM]
1 | Pal-[Pra]GYQKKLRSMTDKYRL [Compound No. 24 (Pal-(Pra)GYQKKLRSMTDKYRL)] | 76.6 | 267 | –
2 | Pal-GGYQKKLR[dP]HTDKYRL [Compound No. 26 (Pal-GGYQKKLRpHTDKYRL)] | 91.2 | 55.2 | –
3 | Hexadecanesulfonyl-GGYQKKLR[dP]HTDKYRL-NH2 (also: table lists the lipid as 'Pal') [Compound No. 46 (CH3(CH2)15SO2-GGYQKKLRpHTDKYRL-amide)] | – | – | 12.5
4 | Palmitoyl-MGYQKKLRPSMTDKYRL (not fully specified) [Compound No. 8 (Pal-MGYQKKLRPSMTDKYRL)] | 88 | 169 | –
5 | Pal-GGYQKKLR[dP]ATDKYRL [Compound No. 27 (Pal-GGYQKKLRpATDKYRL)] | 111 | 85.9 | –
6 | Pal-GGYQKKLR[dP][Dap]TDKYRL [Compound No. 34 (Pal-GGYQKKLRp(Dpr)TDKYRL)] | 103 | 89 | –
7 | Palmitoyl-MGYQKKLRSMTDKYRV (not fully specified) [Compound No. 11 (Pal-MGYQKKLRSMTDKYRV)] | 61.7 | 1320 | –
8 | Palmitoyl-CGYQKKLRSATDKYRL (not fully specified) [Compound No. 30 (Pal-CGYQKKLRSATDKYRL)] | 95.3 | 144 | –
9 | Pal-GGYQKKLR[dP]WTDKYRL [Compound No. 33 (Pal-GGYQKKLRpWTDKYRL)] | 93 | 109 | –
10 | {3‑(dodecyloxy)propanoate}-GGYQKKLRSATDKYRL (not fully specified (C-terminus)) [Compound No. 31 (3-(dodecyloxy)propanoate-GGYQKKLRSATDKYRL)] | 84.2 | 154 | –
11 | Palmitoyl-GGYQKKLRSATDKYRL (not fully specified (C-terminus)) [Compound No. 25 (Pal-GGYQKKLRSATDKYRL)] | 89.4 | 36.8 | –
12 | Pal-MGYQKKLRS[Nle]TDKYRL [Compound No. 17 (Pal-MGYQKKLRS(Nle)TDKYRL)] | 62.7 | 208 | –
13 | Palmitoyl-GGYQKKLRSATDKYRLH (not fully specified) [Compound No. 40 (Pal-GGYQKKLRSATDKYRLH)] | 78.7 | 297 | –
14 | Palmitoyl-MGYQKKLRSMTDKYKL (not fully specified) [Compound No. 13 (Pal-MGYQKKLRSMTDKYKL)] | 61.4 | 194 | –
15 | Pal-GGYQKKLR[dP][dP]HTDKYRL [Compound No. 32 (Pal-GGYQKKLRppHTDKYRL)] | 91.1 | 73.2 | –
16 | Palmitoyl-MGYQKKLRSHTDKYRL (not fully specified) [Compound No. 18 (Pal-MGYQKKLRSHTDKYRL)] | 93.4 | 110 | –
17 | Pal-MGYQKKLRS[dP]MTDKYRL [Compound No. 9 (Pal-MGYQKKLRSpMTDKYRL)] | 77.9 | 123 | –

Row | Binder | % Intrinsic Activity, calcium flux, CEM cells (Flexstation) [%] | EC50 (nM), calcium flux, CEM cells, agonist mode (Flexstation) [nM] | EC50 (nM), calcium flux, CEM cells, agonist mode (FLIPR) [nM]
18 | Palmitoyl-MGYQKPLRSMTDKYRL [Compound No. 6 (Pal-MGYQKPLRSMTDKYRL)] | 90.2 | 161 | –
19 | Pal-MGYQKKLRSMTDKYR[Nle] [Compound No. 12 (Pal-MGYQKKLRSMTDKYR(Nle))] | 73.2 | 249 | –
20 | Palmitoyl-MGYQKKLRSMTDKFRL (not fully specified) [Compound No. 15 (Pal-MGYQKKLRSMTDKFRL)] | 81.5 | 135 | –
21 | Pal-MGYQKKLRSMTDK[2Nal]RL [Compound No. 16 (Pal-MGYQKKLRSMTDK(Nal)RL)] | 34.4 | 3020 | –
22 | Palmitoyl-GGYQKKLRTATDKYRL (not fully specified) [Compound No. 41 (Pal-GGYQKKLRTATDKYRL)] | 149 | 106 | –
23 | Pal-MGYQKKLRSMTDKY[Cit]L [Compound No. 14 (Pal-MGYQKKLRSMTDKY(Cit)L)] | 3.61 | 10000 | –
24 | Palmitoyl-MGYQKKLRSGTDKYRL (not fully specified) [Compound No. 19 (Pal-MGYQKKLRSGTDKYRL)] | 101 | 370 | –
25 | Palmitoyl-MGYQKKLPRSMTDKYRL (not fully specified) [Compound No. 7 (Pal-MGYQKKLPRSMTDKYRL)] | 100 | 153 | –
26 | Pal-GGYQKKLR[dP][Hyp]TDKYRL [Compound No. 36 (Pal-GGYQKKLRp(Hyp)TDKYRL)] | 55.2 | 603 | –
27 | Pal-GGYQKKLR[Hyp]HTDKYRL [Compound No. 35 (Pal-GGYQKKLR(Hyp)HTDKYRL)] | 89.4 | 45 | –
28 | Pal-[code z]GYQKKLRS[code z]TDKYRL (not fully specified; printed as Pal-zGYQKKLRSzTDKYRL; reading uncertain) [Compound No. 23 (Pal-zGYQKKLRSzTDKYRL)] | 87.2 | 83 | –
29 | Pal-[hSer]GYQKKLRS[hSer]TDKYRL [Compound No. 22 (Pal-xGYQKKLRSxTDKYRL)] | 77.7 | 125 | –
30 | Pal-GGYQKK[dP]R[dP]ATDKYRL [Compound No. 28 (Pal-GGYQKKpRpATDKYRL)] | 107 | 25 | –
31 | Pal-GGYQKK[Ala(3-Me-diazirin-3-yl)]RSATDKYRL [Compound No. 37 (Pal-GGYQKK(photoLeu)RSATDKYRL)] | 85.7 | 71.2 | –
32 | Pal-GYQKKLRS[Nle]TDKYRI [Compound No. 20 (Pal-GYQKKLRS(Nle)TDKYRI)] | 62.5 | 232 | –
33 | Pal-GGYQKKLR[dP]ATDKFRL [Compound No. 29 (Pal-GGYQKKLRpATDKFRL)] | 88.9 | 26.3 | –
34 | Palmitoyl-GGYQKKHRSATDKYRL (not fully specified) [Compound No. 38 (Pal-GGYQKKHRSATDKYRL)] | 86.8 | 27 | –
